US20040102611
Substitutions are numbered along the chain they refer to. Names and notes keep the numbering of the source.

B1: FLAG-tagged human CDC7 kinase, wild type (pCdc7FLAG-tagged, in pCMV-Tag2) (protein)
chain: MEASLGIQMDEPMAFSPQRDRFQAEGSLKKNEQNFKLAGVKKDIEKLYEAVPQLSNVFKIEDKIGEGTFSSVYLATAQLQVGPEEKIALKHLIPTSHPIRIAAELQCLTVAGGQDNVMGVKYCFRKNDHVVIAMPYLEHESFLDILNSLSFQEVREYMLNLFKALKRIHQFGIVHRDVKPSNFLYNRRLKKYALVDFGLAQGTHDTKIELLKFVQSEAQQERCSQNKSHIITGNKIPLSGPVPKELDQQSTTKASVKRPYTNAQIQIKQGKDGKEGSVGLSVQRSVFGERNFNIHSSISHESPAVKLMKQSKTVDVLSRKLATKKKAISTKVMNSAVMRKTASSCPASLTCDCYATDKVCSICLSRRQQVAPRAGTPGFRAPEVLTKCPNQTTAIDMWSAGVIFLSLLSGRYPFYKASDDLTALAQIMTIRGSRETIQAAKTFGKSILCSKEVPAQDLRKLCERLRGMDSSTPKLTSDIQGHASHQPAISEKTDHKASCLVQTPPGQYSGNSFKKGDSNSCEHCFDEYNTNLEGWNEVPDEAYDLLDKLLDLNPASRITAEEALLHPFFKDMSL
B2: FLAG-tagged human CDC7 kinase, kinase negative form K90R (pCdc7FLAG K90R) (protein)
chain: B1 chain with K90R

What was measured:
[1] = molecular target: T1, HA-DRF1 (DRF1 with N-terminal HA epitope, expressed from pCDNAHAdrf1)
T1 chain: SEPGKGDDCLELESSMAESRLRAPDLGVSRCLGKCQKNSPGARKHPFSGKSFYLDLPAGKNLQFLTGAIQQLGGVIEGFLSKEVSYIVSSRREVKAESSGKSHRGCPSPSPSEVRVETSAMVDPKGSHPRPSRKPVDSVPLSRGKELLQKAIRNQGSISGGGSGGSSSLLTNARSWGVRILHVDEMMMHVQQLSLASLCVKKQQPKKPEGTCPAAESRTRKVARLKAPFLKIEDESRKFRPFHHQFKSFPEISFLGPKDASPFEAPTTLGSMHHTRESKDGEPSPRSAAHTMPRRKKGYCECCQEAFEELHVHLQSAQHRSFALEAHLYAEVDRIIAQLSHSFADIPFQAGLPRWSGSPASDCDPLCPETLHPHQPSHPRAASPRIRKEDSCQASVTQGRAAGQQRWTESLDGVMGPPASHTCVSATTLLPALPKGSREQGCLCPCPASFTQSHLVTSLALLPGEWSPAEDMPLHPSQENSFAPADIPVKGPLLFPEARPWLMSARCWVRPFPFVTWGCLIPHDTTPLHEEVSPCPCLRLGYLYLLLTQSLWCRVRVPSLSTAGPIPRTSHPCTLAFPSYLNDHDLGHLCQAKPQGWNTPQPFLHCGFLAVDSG

[2] = molecular target: T2, DBF4 (human DBF4/ASK1), Q9UBU7
T2 chain: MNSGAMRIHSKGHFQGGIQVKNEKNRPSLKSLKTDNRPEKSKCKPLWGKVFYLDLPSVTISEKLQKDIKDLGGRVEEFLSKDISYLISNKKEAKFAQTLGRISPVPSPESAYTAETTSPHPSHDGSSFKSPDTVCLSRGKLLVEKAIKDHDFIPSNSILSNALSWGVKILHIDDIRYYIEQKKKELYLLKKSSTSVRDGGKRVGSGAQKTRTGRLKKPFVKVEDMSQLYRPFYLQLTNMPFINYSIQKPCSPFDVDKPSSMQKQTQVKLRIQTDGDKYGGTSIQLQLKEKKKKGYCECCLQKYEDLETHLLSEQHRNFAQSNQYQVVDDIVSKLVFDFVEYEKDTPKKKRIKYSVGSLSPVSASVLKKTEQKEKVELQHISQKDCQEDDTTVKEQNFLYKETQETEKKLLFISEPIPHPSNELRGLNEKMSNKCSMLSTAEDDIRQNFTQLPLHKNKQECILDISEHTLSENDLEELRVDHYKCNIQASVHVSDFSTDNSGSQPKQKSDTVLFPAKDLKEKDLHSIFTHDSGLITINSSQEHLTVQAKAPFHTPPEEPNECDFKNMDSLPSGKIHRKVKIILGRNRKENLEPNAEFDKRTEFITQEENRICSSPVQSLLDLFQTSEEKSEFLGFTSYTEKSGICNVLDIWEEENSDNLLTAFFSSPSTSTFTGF

Protein | phosphorylation of DRF1 (32P, FIG. 3 panel A) [1] | phosphorylation of MCM2 (1-285) by immunoprecipitated complexes (32P kinase assay, autoradiography) [1] | phosphorylation of MCM2 by CDC7 [1] | phosphorylation of MCM2 (1-285) by immunoprecipitated complexes (32P kinase assay, autoradiography) [2]
B1 | DRF1, as DBF4, was detected as a phosphoprotein when expressed with wild type CDC7 but not with the kinase negative | In the presence of HA-DRF1 and wild-type CDC7, efficient phosphorylation of MCM2 (1-285) (above the background shown in lane 4, panel B) was observed | in the presence of DRF1, CDC7 is able to phosphorylate its physiological substrates MCM2 | DRF1 is a regulatory subunit of CDC7 able to induce its kinase activity in a way comparable to DBF4 (lane 5)
B2 |  | it can be abolished by overexpression of the mutant K90R (lanes 1 and 6) |  | 
